Assay results as given in patent US20260234255A1 (Genmab, published 2026).

T1: human CD30 (human, UniProt P28908 19-595)
T1 construct: also called huCD30; TNFRSF8
T1 sequence: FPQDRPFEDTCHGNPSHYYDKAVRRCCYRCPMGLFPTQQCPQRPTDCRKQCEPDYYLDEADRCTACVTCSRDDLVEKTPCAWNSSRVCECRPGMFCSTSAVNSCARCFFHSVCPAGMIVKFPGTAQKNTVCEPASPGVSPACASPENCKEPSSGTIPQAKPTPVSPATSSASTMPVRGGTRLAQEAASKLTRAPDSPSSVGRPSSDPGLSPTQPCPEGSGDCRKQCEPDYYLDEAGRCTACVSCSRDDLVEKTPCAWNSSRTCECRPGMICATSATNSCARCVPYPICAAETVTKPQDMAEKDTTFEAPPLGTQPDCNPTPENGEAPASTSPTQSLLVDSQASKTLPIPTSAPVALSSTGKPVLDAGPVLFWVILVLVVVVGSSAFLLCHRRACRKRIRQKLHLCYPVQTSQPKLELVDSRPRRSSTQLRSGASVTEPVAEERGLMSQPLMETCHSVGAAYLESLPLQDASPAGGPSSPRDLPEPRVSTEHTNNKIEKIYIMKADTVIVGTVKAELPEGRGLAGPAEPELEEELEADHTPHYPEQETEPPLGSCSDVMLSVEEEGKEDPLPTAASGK

B1: IgG1-CD30-hAC10-FEAR (antibody, V domains shown)
VH: QVQLVQSGAEVKKPGASVKVSCKASGYTFTDYYITWVRQAPGQGLEWMGWIYPGSGNTKYNEKFKGRVTMTRDTSISTAYMELSRLRSDDTAVYYCANYGNYWFAYWGQGTLVTVSS
VL: DIVMTQSPDSLAVSLGERATINCKASQSVDFDGDSYMNWYQQKPGQPPKLLIYAASNLESGVPDRFSGSGSGTDFTLTISSLQAEDVAVYYCQQSNEDPWTFGQGTKVEIKR
notes: Monospecific, bivalent parental antibody
B2: IgG1-CD30-HRS-3-FEAR (antibody, V domains shown)
VH: QVQLQQSGAELARPGASVKMSCKASGYTFTTYTIHWVRQRPGHDLEWIGYINPSSGYSDYNQNFKGKTTLTADKSSNTAYMQLNSLTSEDSAVYYCARRADYGNYEYTWFAYWGQGTTVTVSS
VL: DIVMTQSPKFMSTSVGDRVTVTCKASQNVGTNVAWFQQKPGQSPKVLIYSASYRYSGVPDRFTGSGSGTDFTLTISNVQSEDLAEYFCQQYHTYPLTFGGGTKLEINR
notes: as for B1
B3: bsG1-huCD3-FEALxCD30-T408-FEAR (bispecific antibody, human IgG1, kappa, lambda)
heavy 1: not shown
light 1: not shown
heavy 2: QVQLQQPGAELVRPGASVKLSCKASGYTFTSYWINWVKQRPGQGLEWIGNIYPSDSYSNYNQKFKDKATLTVDKSSSTAYMQLSSPTSEDSAVYYCTLGSYWGQGTLVTVSAASTKGPSVFPLAPSSKSTSGGTAALGCLVKDYFPEPVTVSWNSGALTSGVHTFPAVLQSSGLYSLSSVVTVPSSSLGTQTYICNVNHKPSNTKVDKRVEPKSCDKTHTCPPCPAPEFEGGPSVFLFPPKPKDTLMISRTPEVTCVVVAVSHEDPEVKFNWYVDGVEVHNAKTKPREEQYNSTYRVVSVLTVLHQDWLNGKEYKCKVSNKALPAPIEKTISKAKGQPREPQVYTLPPSREEMTKNQVSLTCLVKGFYPSDIAVEWESNGQPENNYKTTPPVLDSDGSFFLYSRLTVDKSRWQQGNVFSCSVMHEALHNHYTQKSLSLSPG
light 2: DVVMTQTPLTLSVTIGQPASISCKSSQSLSDSDGKTYLNWLLQRPGQSPKRLIYLVSKLDSGVPDRFTGSGSGTDFTLKISRVEAEDLGVYYCWQGAHFPRTFGGGTKLEIKRTVAAPSVFIFPPSDEQLKSGTASVVCLLNNFYPREAKVQWKVDNALQSGNSQESVTEQDSKDSTYSLSSTLTLSKADYEKHKVYACEVTHQGLSSPVTKSFNRGEC
B4: IgG1-CD30-T215-FEAR (antibody, V domains shown)
VH: QVTLKESGPGILQPSQTLSLTCSFSGFSLSVSGMGVSWIRQPSGKGLEWLAHIHWDDDRRSNPSLRSRLTISKDTSNNQVFLKITSVDTADTATYYCARRPDLYGNYFFFDFWGQGTTLTVSS
VL: DIVMTQSQKFMSTSVGDRVSVTCKASQNVFTNVAWYQQKLGQSPKPLIYSASYRYSGVPDRFTGSGSGTDFTLTISDVQSEDLAEYFCQQYNSYPVTFGAGTKLELKR
notes: as for B1
B5: bsG1-huCD3-FEALxCD30-T215-FEAR (bispecific antibody, human IgG1, kappa, lambda)
heavy 1: not shown
light 1: not shown
heavy 2: not shown
light 2: DIVMTQSQKFMSTSVGDRVSVTCKASQNVFTNVAWYQQKLGQSPKPLIYSASYRYSGVPDRFTGSGSGTDFTLTISDVQSEDLAEYFCQQYNSYPVTFGAGTKLELKRTVAAPSVFIFPPSDEQLKSGTASVVCLLNNFYPREAKVQWKVDNALQSGNSQESVTEQDSKDSTYSLSSTLTLSKADYEKHKVYACEVTHQGLSSPVTKSFNRGEC
notes: Bispecific IgG1 made by controlled Fab-arm exchange; also called bsIgG1-huCD3-FEALxCD30-T215-FEAR
B6: bsG1-huCD3-FEALxCD30-hAC10-FEAR (bispecific antibody, human IgG1, kappa, lambda)
heavy 1: not shown
light 1: not shown
heavy 2: QVQLVQSGAEVKKPGASVKVSCKASGYTFTDYYITWVRQAPGQGLEWMGWIYPGSGNTKYNEKFKGRVTMTRDTSISTAYMELSRLRSDDTAVYYCANYGNYWFAYWGQGTLVTVSSASTKGPSVFPLAPSSKSTSGGTAALGCLVKDYFPEPVTVSWNSGALTSGVHTFPAVLQSSGLYSLSSVVTVPSSSLGTQTYICNVNHKPSNTKVDKRVEPKSCDKTHTCPPCPAPEFEGGPSVFLFPPKPKDTLMISRTPEVTCVVVAVSHEDPEVKFNWYVDGVEVHNAKTKPREEQYNSTYRVVSVLTVLHQDWLNGKEYKCKVSNKALPAPIEKTISKAKGQPREPQVYTLPPSREEMTKNQVSLTCLVKGFYPSDIAVEWESNGQPENNYKTTPPVLDSDGSFFLYSRLTVDKSRWQQGNVFSCSVMHEALHNHYTQKSLSLSPG
light 2: not shown
notes: Bispecific IgG1 made by controlled Fab-arm exchange

What was measured:
human CD30 [1] = target: T1, human CD30; experiment: flow cytometry, HDLM-2 cells
Description: (§1) Binding of CD3×CD30 bispecific antibodies to two CD30-expressing human tumor cell lines SU-DHL-1 (ALCL; ATCC, cat. no. ACC 356) and HDLM-2 (HL; ATCC, cat. no. CRL-2965) was analyzed […] by flow cytometry.
(§2) Cells (3×10⁴ cells/well) were incubated in polystyrene 96-well round-bottom plates (Greiner bio-one, cat. no. 650180) with serial dilutions of antibodies (range 0.0046 to 10 μg/mL in 3-fold dilution steps) in 50 μL staining buffer at 4° C. for 30 min. After washing twice in staining buffer, cells were incubated with 50 μL secondary antibody at 4° C. for 30 min. […] Next, cells were washed twice in staining buffer, resuspended in 100 μL staining buffer supplemented with TO-PRO-3 iodide (Thermo Fisher Scientific; cat. no. T3605; 1:8000 dilution) and analyzed on a FACSCelesta flow cytometer (BD Biosciences, USA). Live cells were gated based on FSC/SSC and absence of TOPRO-3 staining. Binding curves were analyzed by non-linear regression of log-transformed data (sigmoidal dose-response with variable slope, four parameters) using GraphPad Prism V7.02 software (GraphPad Software, San Diego, CA, USA).

human CD30 [2] = target: T1, human CD30; experiment: flow cytometry, SU-DHL-1 cells
Description: as §1, §2

human CD30 [3] = target: T1, human CD30; experiment: cell-based or functional assay

Binder	EC50 (read off the curve) (human CD30 [1])	EC50 (read off the curve) (human CD30 [2])	T-cell mediated cytotoxicity of Karpas-299 cells, IC50 average (human CD30 [3])	T-cell mediated cytotoxicity of Karpas-299 cells, maximum lysis average (human CD30 [3])
B1	~0.1 µg/mL	–	–	–
B2	~0.2 µg/mL	~0.2 µg/mL	–	–
B3	–	–	0.226 µg/mL	41.3%
B4	~0.2 µg/mL	~0.1 µg/mL	–	–
B5	~0.6 µg/mL	–	0.077 µg/mL	42.8%
B6	~0.2 µg/mL	~0.2 µg/mL	–	–
